The supplement of paper PMC9112550, “Optimization of the antimicrobial peptide Bac7 by deep mutational scanning” (BMC Biology, 2022)

System: Escherichia coli TOP10
Test: shrunken log2 fold change of peptide-encoding DNA abundance (4.5 h post-induction vs induction); higher = less antimicrobial activity (less host growth inhibition)
Conditions: time post-induction: 4.5 h; library: site-saturation at positions 5, 18, 19, 20
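Also: peptides expressed intracellularly from a pBAD plasmid library in pooled LB shake-flask culture, induced with 0.3% L-arabinose, DNA abundance read by NGS, three biological replicates, DESeq2 with apeglm shrinkage.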

Sequence | shrunken log2 fold change
RRIRIRPPRLPRPRPRPPPCPRP | 0.0616
RRIRDRPPRLPRPRPRPLMLPRP | 0.116
RRIRVRPPRLPRPRPRPEEFPRP | -0.034
RRIRCRPPRLPRPRPRPDKRPRP | 0.00837
RRIRTRPPRLPRPRPRPDDSPRP | -1.36
RRIRGRPPRLPRPRPRPYHQPRP | -0.101
RRIRARPPRLPRPRPRPFQKPRP | 0.121
RRIRIRPPRLPRPRPRPEGTPRP | 0.0536
RRIRGRPPRLPRPRPRPVDFPRP | 0.408
RRIRWRPPRLPRPRPRPRRDPRP | 0.243
RRIRRRPPRLPRPRPRPLSLPRP | -0.203
RRIRLRPPRLPRPRPRPERIPRP | 0.0484
RRIRYRPPRLPRPRPRPGRPPRP | 0.0326
RRIRIRPPRLPRPRPRPGGRPRP | 0.229
RRIRTRPPRLPRPRPRPRCKPRP | 0.0432
RRIRHRPPRLPRPRPRPRVQPRP | 0.054
RRIRPRPPRLPRPRPRPGDAPRP | 0.398
RRIRMRPPRLPRPRPRPQWGPRP | 0.0503
RRIRWRPPRLPRPRPRPPESPRP | 0.225
RRIRLRPPRLPRPRPRPNILPRP | -0.634
RRIRDRPPRLPRPRPRPYVNPRP | -1.59
RRIRVRPPRLPRPRPRPSAIPRP | -0.258
RRIRTRPPRLPRPRPRPFFNPRP | -0.582
RRIRYRPPRLPRPRPRPRPCPRP | -0.117
RRIRVRPPRLPRPRPRPKVNPRP | -0.288

Sequence | shrunken log2 fold change
RRIRARPPRLPRPRPRPYHYPRP | -0.0868
RRIRLRPPRLPRPRPRPAFWPRP | 0.292
RRIRTRPPRLPRPRPRPIHQPRP | 0.0323
RRIRHRPPRLPRPRPRPVTGPRP | -0.213
RRIRCRPPRLPRPRPRPRDEPRP | 0.342
RRIRWRPPRLPRPRPRPREMPRP | 0.262
RRIRTRPPRLPRPRPRPVYNPRP | -0.239
RRIRDRPPRLPRPRPRPSSKPRP | -0.0562
RRIRARPPRLPRPRPRPRDQPRP | 0.499
RRIRIRPPRLPRPRPRPPAHPRP | 0.139
RRIRGRPPRLPRPRPRPCCPPRP | 0.0328
RRIRFRPPRLPRPRPRPFYGPRP | -0.146
RRIRRRPPRLPRPRPRPNSIPRP | -0.236
RRIRIRPPRLPRPRPRPHLIPRP | -0.245
RRIRFRPPRLPRPRPRPYYDPRP | -0.072
RRIRHRPPRLPRPRPRPLYIPRP | -0.777
RRIRLRPPRLPRPRPRPQGWPRP | 0.495
RRIRPRPPRLPRPRPRPMDNPRP | -0.683
RRIRDRPPRLPRPRPRPVDLPRP | 0.0194
RRIRIRPPRLPRPRPRPSSNPRP | -0.313
RRIRDRPPRLPRPRPRPVMFPRP | 0.16
RRIRKRPPRLPRPRPRPFYRPRP | 0.0824
RRIRKRPPRLPRPRPRPGRTPRP | 0.223
RRIRTRPPRLPRPRPRPGHPPRP | 0.09
RRIRQRPPRLPRPRPRPTSTPRP | -0.0784

Sequence | shrunken log2 fold change
RRIRHRPPRLPRPRPRPTWLPRP | 0.326
RRIRRRPPRLPRPRPRPAKWPRP | 0.123
RRIRGRPPRLPRPRPRPGQPPRP | 0.462
RRIRYRPPRLPRPRPRPNVDPRP | -1.26
RRIRPRPPRLPRPRPRPRQKPRP | 0.0891
RRIRARPPRLPRPRPRPTANPRP | 0.401
RRIRYRPPRLPRPRPRPLCKPRP | -0.588
RRIRKRPPRLPRPRPRPDWDPRP | -0.193
RRIRMRPPRLPRPRPRPRHFPRP | 0.00681
RRIRGRPPRLPRPRPRPDGYPRP | 0.222
RRIRWRPPRLPRPRPRPYYRPRP | -0.0707
RRIRTRPPRLPRPRPRPVKTPRP | 0.12
RRIRGRPPRLPRPRPRPRLYPRP | 0.291
RRIRTRPPRLPRPRPRPDPQPRP | -0.0945
RRIRHRPPRLPRPRPRPTMIPRP | -0.112
RRIRGRPPRLPRPRPRPFTYPRP | 0.0977
RRIRLRPPRLPRPRPRPTGRPRP | 0.105
RRIRNRPPRLPRPRPRPATVPRP | -0.17
RRIRQRPPRLPRPRPRPDYTPRP | -0.0424
RRIRPRPPRLPRPRPRPVGQPRP | 0.102
RRIRTRPPRLPRPRPRPIPAPRP | 0.0613
RRIRERPPRLPRPRPRPAEGPRP | -0.179
RRIRHRPPRLPRPRPRPGWFPRP | 0.0663
RRIRTRPPRLPRPRPRPWMRPRP | 0.556
RRIRRRPPRLPRPRPRPSMIPRP | -0.114

Sequence | shrunken log2 fold change
RRIRARPPRLPRPRPRPGQWPRP | 0.466
RRIRDRPPRLPRPRPRPDNFPRP | 0.0301
RRIRMRPPRLPRPRPRPHEFPRP | 0.224
RRIRCRPPRLPRPRPRPWLFPRP | -0.179
RRIRIRPPRLPRPRPRPWALPRP | -0.0173
RRIRQRPPRLPRPRPRPFNPPRP | -0.077
RRIRWRPPRLPRPRPRPKPAPRP | 0.605
RRIRHRPPRLPRPRPRPCIIPRP | -0.0445
RRIRLRPPRLPRPRPRPVGYPRP | -0.0152
RRIRRRPPRLPRPRPRPKHRPRP | 0.376
RRIRVRPPRLPRPRPRPIKTPRP | 0.059
RRIRHRPPRLPRPRPRPSMVPRP | -0.372
RRIRVRPPRLPRPRPRPCVSPRP | -0.0282
RRIRVRPPRLPRPRPRPYQHPRP | -0.301
RRIRDRPPRLPRPRPRPPGEPRP | -0.0136
RRIRARPPRLPRPRPRPWGTPRP | 0.211
RRIRHRPPRLPRPRPRPKTEPRP | -0.0292
RRIRLRPPRLPRPRPRPYHFPRP | -0.26
RRIRVRPPRLPRPRPRPLSPPRP | -0.172
RRIRIRPPRLPRPRPRPEQWPRP | -0.0237
RRIRPRPPRLPRPRPRPVLKPRP | -0.267
RRIRDRPPRLPRPRPRPEKHPRP | 0.377
RRIRNRPPRLPRPRPRPWHEPRP | -0.454
RRIRSRPPRLPRPRPRPERPPRP | 0.384
RRIRFRPPRLPRPRPRPGWIPRP | 0.0799

Sequence | shrunken log2 fold change
RRIRPRPPRLPRPRPRPLYYPRP | -0.985
RRIRPRPPRLPRPRPRPYAFPRP | -0.264
RRIRIRPPRLPRPRPRPDCPPRP | 0.132
RRIRLRPPRLPRPRPRPIMKPRP | -0.489
RRIRQRPPRLPRPRPRPMRNPRP | -0.0579
RRIRKRPPRLPRPRPRPIHQPRP | -0.0102
RRIRARPPRLPRPRPRPANLPRP | 0.177
RRIRRRPPRLPRPRPRPLVIPRP | -0.0686
RRIRWRPPRLPRPRPRPSVEPRP | 0.172
RRIRPRPPRLPRPRPRPTCCPRP | -0.0529
RRIRLRPPRLPRPRPRPKSWPRP | 0.176
RRIRGRPPRLPRPRPRPQIFPRP | -0.0563
RRIRFRPPRLPRPRPRPVLAPRP | 0.239
RRIRVRPPRLPRPRPRPLCHPRP | -0.364
RRIRMRPPRLPRPRPRPLQCPRP | -0.0663
RRIRNRPPRLPRPRPRPDQKPRP | -0.000687
RRIRPRPPRLPRPRPRPHAHPRP | 0.00207
RRIRRRPPRLPRPRPRPDIDPRP | 0.0367
RRIRWRPPRLPRPRPRPGGCPRP | 0.732
RRIRWRPPRLPRPRPRPLHHPRP | -0.0749
RRIRRRPPRLPRPRPRPKTEPRP | 0.452
RRIRERPPRLPRPRPRPHFLPRP | -0.458
RRIRARPPRLPRPRPRPNRGPRP | 0.108
RRIRGRPPRLPRPRPRPFKQPRP | 0.13
RRIRGRPPRLPRPRPRPFADPRP | 2.03

Sequence | shrunken log2 fold change
RRIRLRPPRLPRPRPRPLCVPRP | 0.688
RRIRARPPRLPRPRPRPNFEPRP | 0.356
RRIRFRPPRLPRPRPRPVRNPRP | 0.077
RRIRHRPPRLPRPRPRPFFWPRP | 0.093
RRIRTRPPRLPRPRPRPPKAPRP | 0.0856
RRIRPRPPRLPRPRPRPNDGPRP | -0.482
RRIRCRPPRLPRPRPRPEATPRP | 0.95
RRIRVRPPRLPRPRPRPSGRPRP | 0.0291
RRIRCRPPRLPRPRPRPFRDPRP | -0.0732
RRIRYRPPRLPRPRPRPDVWPRP | -0.194
RRIRFRPPRLPRPRPRPIPYPRP | -0.102
RRIRYRPPRLPRPRPRPRNYPRP | -1.26
RRIRRRPPRLPRPRPRPLWWPRP | 0.48
RRIRERPPRLPRPRPRPTIDPRP | -0.227
RRIRDRPPRLPRPRPRPQCPPRP | -0.00693
RRIRYRPPRLPRPRPRPCKVPRP | -0.422
RRIRARPPRLPRPRPRPCFAPRP | 0.61
RRIRCRPPRLPRPRPRPQSKPRP | -0.448
RRIRRRPPRLPRPRPRPHIPPRP | -0.126
RRIRDRPPRLPRPRPRPLAIPRP | 0.0447
RRIRLRPPRLPRPRPRPATGPRP | 0.13
RRIRHRPPRLPRPRPRPVSWPRP | 0.442
RRIRCRPPRLPRPRPRPSMTPRP | -0.178
RRIRPRPPRLPRPRPRPLFVPRP | -0.176
RRIRCRPPRLPRPRPRPSWMPRP | 0.326
